From PMC2756588

T1: Abp1, P15891
T1 sequence (P15891 535-592, looked up): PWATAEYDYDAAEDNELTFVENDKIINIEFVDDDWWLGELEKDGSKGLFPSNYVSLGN

T2: Bbc1, P47068
T2 sequence (P47068 1-78, looked up): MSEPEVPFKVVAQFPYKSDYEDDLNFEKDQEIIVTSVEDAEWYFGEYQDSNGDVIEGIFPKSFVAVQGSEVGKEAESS

T3: Boi1, P38041
T3 sequence (P38041 1-86, looked up): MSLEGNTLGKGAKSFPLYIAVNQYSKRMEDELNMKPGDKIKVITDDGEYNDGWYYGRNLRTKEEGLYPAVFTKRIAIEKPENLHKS

T4: Boi2, P39969
T4 sequence (P39969 32-116, looked up): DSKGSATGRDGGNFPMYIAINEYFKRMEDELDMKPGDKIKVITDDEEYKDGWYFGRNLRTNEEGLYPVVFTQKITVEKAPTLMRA

T5: Bud14, P27637
T5 sequence (P27637 247-328, looked up): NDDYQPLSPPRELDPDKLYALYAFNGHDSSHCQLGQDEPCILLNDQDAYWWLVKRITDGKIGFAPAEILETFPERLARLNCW

T6: Bzz1-1, P38822
T6 sequence (P38822 478-572, looked up): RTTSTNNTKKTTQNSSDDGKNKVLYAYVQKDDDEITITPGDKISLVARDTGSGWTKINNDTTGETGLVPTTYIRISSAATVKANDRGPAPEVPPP

T7: Bzz1-2, P38822
T7 sequence (P38822 568-633, looked up): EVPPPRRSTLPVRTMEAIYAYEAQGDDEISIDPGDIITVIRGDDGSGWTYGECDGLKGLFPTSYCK

T8: Cdc25, P04821
T8 sequence (P04821 50-136, looked up): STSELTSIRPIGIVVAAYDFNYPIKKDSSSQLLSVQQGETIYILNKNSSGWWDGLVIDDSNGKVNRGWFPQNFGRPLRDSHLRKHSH

T9: Cyk3, Q07533
T9 sequence (Q07533 1-83, looked up): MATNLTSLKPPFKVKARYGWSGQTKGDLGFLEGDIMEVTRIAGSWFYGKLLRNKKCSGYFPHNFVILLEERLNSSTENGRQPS

T10: Fus1, P11710
T10 sequence (P11710 432-512, looked up): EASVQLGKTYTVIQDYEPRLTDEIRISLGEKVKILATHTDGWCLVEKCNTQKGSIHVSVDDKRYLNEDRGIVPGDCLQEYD

T11: Hof1, Q05080
T11 sequence (Q05080 590-669, looked up): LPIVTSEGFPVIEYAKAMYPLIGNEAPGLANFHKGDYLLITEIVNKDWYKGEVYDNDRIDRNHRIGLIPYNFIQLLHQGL

T12: Hse1, P38753
T12 sequence (P38753 208-285, looked up): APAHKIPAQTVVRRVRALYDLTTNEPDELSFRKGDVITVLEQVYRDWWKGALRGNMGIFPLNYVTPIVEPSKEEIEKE

T13: Lsb1, P53281
T13 sequence (P53281 45-122, looked up): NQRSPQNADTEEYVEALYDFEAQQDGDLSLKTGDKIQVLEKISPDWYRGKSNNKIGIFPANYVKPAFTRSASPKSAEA

T14: Lsb3, P43603
T14 sequence (P43603 385-451, looked up): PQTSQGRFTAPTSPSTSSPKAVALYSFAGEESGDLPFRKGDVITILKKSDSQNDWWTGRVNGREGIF

T15: Lsb4, P32793
T15 sequence (P32793 402-468, looked up): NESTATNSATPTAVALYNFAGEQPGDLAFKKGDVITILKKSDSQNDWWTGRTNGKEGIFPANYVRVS

T16: Myo5, Q04439
T16 sequence (Q04439 1072-1160, looked up): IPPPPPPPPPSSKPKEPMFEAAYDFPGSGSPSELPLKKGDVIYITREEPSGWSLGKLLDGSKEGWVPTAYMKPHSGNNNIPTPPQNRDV

T17: Nbp2, Q12163
T17 sequence (Q12163 103-180, looked up): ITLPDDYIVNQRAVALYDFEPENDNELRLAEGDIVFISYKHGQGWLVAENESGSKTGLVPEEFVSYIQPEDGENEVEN

T18: Pex13, P80667
T18 sequence (P80667 295-386, looked up): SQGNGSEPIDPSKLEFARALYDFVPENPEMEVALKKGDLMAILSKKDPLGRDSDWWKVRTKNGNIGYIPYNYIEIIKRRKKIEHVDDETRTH

T19: Pin3, Q06449
T19 sequence (Q06449 53-122, looked up): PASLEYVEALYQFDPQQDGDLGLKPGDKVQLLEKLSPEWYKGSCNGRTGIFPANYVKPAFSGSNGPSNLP

T20: Sla1-2, P32790
T20 sequence (P32790 60-140, looked up): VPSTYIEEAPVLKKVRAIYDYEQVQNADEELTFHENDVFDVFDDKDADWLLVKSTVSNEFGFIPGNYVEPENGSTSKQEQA

T21: Sla1-3, P32790
T21 sequence (P32790 344-424, looked up): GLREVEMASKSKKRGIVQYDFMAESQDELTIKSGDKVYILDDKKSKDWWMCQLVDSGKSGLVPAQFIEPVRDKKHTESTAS


Legend:
Assay in all cases: SPOT array
[1] = target: T1, Abp1, P15891; settings: median of control spots 935
[2] = target: T2, Bbc1, P47068; settings: median of control spots 796
[3] = target: Bem1-1, P29366; settings: median of control spots 4282
Chain of Bem1-1, P29366 (P29366 55-141): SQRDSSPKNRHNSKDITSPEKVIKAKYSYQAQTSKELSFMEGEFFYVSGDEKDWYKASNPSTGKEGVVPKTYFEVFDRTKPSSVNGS

[4] = target: Bem1-2, P29366; settings: median of control spots 4347
Chain of Bem1-2, P29366 (P29366 139-227): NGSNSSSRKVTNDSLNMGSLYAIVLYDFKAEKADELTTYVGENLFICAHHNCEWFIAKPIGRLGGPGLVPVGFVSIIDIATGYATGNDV

[5] = target: T3, Boi1, P38041; settings: median of control spots 1162
[6] = target: T4, Boi2, P39969; settings: median of control spots 1161
[7] = target: T5, Bud14, P27637; settings: median of control spots 956
[8] = target: T6, Bzz1-1, P38822; settings: median of control spots 4446
[9] = target: T7, Bzz1-2, P38822; settings: median of control spots 4538
[10] = target: T8, Cdc25, P04821; settings: median of control spots 969
[11] = target: T9, Cyk3, Q07533; settings: median of control spots 1451
[12] = target: T10, Fus1, P11710; settings: median of control spots 1200
[13] = target: GST; settings: median of control spots 978
[14] = target: T11, Hof1, Q05080; settings: median of control spots 4086
[15] = target: T12, Hse1, P38753; settings: median of control spots 1727
[16] = target: T13, Lsb1, P53281; settings: median of control spots 388
[17] = target: T14, Lsb3, P43603; settings: median of control spots 406
[18] = target: T15, Lsb4, P32793; settings: median of control spots 397
[19] = target: Myo3, P36006; settings: median of control spots 468
[20] = target: T16, Myo5, Q04439; settings: median of control spots 471
[21] = target: T17, Nbp2, Q12163; settings: median of control spots 357
[22] = target: T18, Pex13, P80667; settings: median of control spots 1341
[23] = target: T19, Pin3, Q06449; settings: median of control spots 2171
[24] = target: Rvs167, P39743; settings: median of control spots 2707
Chain of Rvs167, P39743 (P39743 419-482): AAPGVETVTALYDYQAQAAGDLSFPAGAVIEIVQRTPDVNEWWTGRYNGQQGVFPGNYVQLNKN

[25] = target: Sho1, P40073; settings: median of control spots 1148
Chain of Sho1, P40073 (P40073 287-367): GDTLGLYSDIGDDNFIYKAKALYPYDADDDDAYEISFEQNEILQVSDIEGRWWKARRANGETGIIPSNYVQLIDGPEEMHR

[26] = target: T20, Sla1-2, P32790; settings: median of control spots 712
[27] = target: T21, Sla1-3, P32790; settings: median of control spots 5475

Row | Binder | SPOT intensity [1] | SPOT intensity [2] | SPOT intensity [3] | SPOT intensity [4] | SPOT intensity [5] | SPOT intensity [6] | SPOT intensity [7] | SPOT intensity [8] | SPOT intensity [9] | SPOT intensity [10] | SPOT intensity [11] | SPOT intensity [12] | SPOT intensity [13] | SPOT intensity [14] | SPOT intensity [15] | SPOT intensity [16] | SPOT intensity [17] | SPOT intensity [18] | SPOT intensity [19] | SPOT intensity [20] | further results
1 | MARRRLPDRPPNGIG | 113 | 69 | 0 | 78 | 0 | 0 | 4 | 0 | 160 | 14 | 0 | 0 | 0 | 130 | 126 | 587 | 175 | 533 | 15 | 5 | SPOT intensity [21]: 3; SPOT intensity [22]: 99; SPOT intensity [23]: 91; SPOT intensity [24]: 1590; SPOT intensity [25]: 393; SPOT intensity [26]: 1; SPOT intensity [27]: 36
2 | PSRRAPLQLPQLVNK | 45 | 12 | 2 | 0 | 0 | 0 | 0 | 0 | 0 | 0 | 0 | 0 | 1 | 0 | 0 | 313 | 0 | 2 | 0 | 0 | SPOT intensity [21]: 0; SPOT intensity [22]: 1; SPOT intensity [23]: 5; SPOT intensity [24]: 0; SPOT intensity [25]: 17; SPOT intensity [26]: 0; SPOT intensity [27]: 0
3 | NSVPIMPTLPPRPYI | 14 | 109 | 0 | 2 | 0 | 0 | 0 | 0 | 0 | 0 | 2 | 0 | 1 | 2750 | 368 | 176 | 242 | 513 | 26 | 25 | SPOT intensity [21]: 0; SPOT intensity [22]: 172; SPOT intensity [23]: 28; SPOT intensity [24]: 157; SPOT intensity [25]: 0; SPOT intensity [26]: 0; SPOT intensity [27]: 0
4 | PVLPPPRSPNRPTLS | 133 | 151 | 1 | 6 | 849 | 1280 | 0 | 8 | 9 | 0 | 0 | 0 | 1 | 9 | 0 | 39 | 102 | 325 | 22 | 6 | SPOT intensity [21]: 0; SPOT intensity [22]: 86; SPOT intensity [23]: 7; SPOT intensity [24]: 6; SPOT intensity [25]: 0; SPOT intensity [26]: 442; SPOT intensity [27]: 6
5 | GAGERPRLVPRPINV | 9 | 30 | 3 | 1 | 3 | 0 | 0 | 1 | 0 | 18 | 3 | 0 | 0 | 11 | 7 | 18 | 60 | 105 | 0 | 1 | SPOT intensity [21]: 2; SPOT intensity [22]: 24; SPOT intensity [23]: 5; SPOT intensity [24]: 4; SPOT intensity [25]: 4; SPOT intensity [26]: 1; SPOT intensity [27]: 0
6 | LYKRKPILLPDPKPL | 43 | 2 | 0 | 0 | 0 | 0 | 1 | 0 | 0 | 0 | 0 | 0 | 2 | 0 | 2 | 1210 | 0 | 0 | 0 | 1 | SPOT intensity [21]: 1; SPOT intensity [22]: 1; SPOT intensity [23]: 7; SPOT intensity [24]: 0; SPOT intensity [25]: 15; SPOT intensity [26]: 0; SPOT intensity [27]: 0
